Results on one molecule are retold here after PMC11102864 (Nature Structural & Molecular Biology, 2024).

The target of the experiment is Arp3 (subunit of the human Arp2/3 complex, activated conformation at the branch) (human, UniProt P61158 1-418). Kind of experiment: cryo-EM structure; actin branches reconstituted from Arp2/3, VVCA, SPIN90, actin and capping protein, then 1.9 uM full-length cortactin and 10 uM phalloidin; 20 mM HEPES pH 7.5, 50 mM KCl, 1 mM EGTA, 1 mM MgCl2, 0.2 mM ATP, 1 mM DTT; room temperature; overall resolution about 3.3 Å. The note with it: both partners purified.

B1: Full-length mouse cortactin (natural protein)
chain: not shown
notes: cortactin, mouse, residues 1-546, UniProt Q60598; only residues 21-79 (NtA) and 80-116 (first central repeat) were built in the model; also called full-length cortactin
As to B1, the binding result is on record as “binds”.
